Earlier results in patent US6444791B1, “Methods and compositions for the treatment of keratoconus using protease inhibitors” (K-Quay Enterprises, LLC, priority 1999, dated 2002).
Like-named read-outs stand apart in the source and are kept apart here. Non-standard residues stand in square brackets, D forms with d. Residues, ends and D or L forms follow the SMILES beside them. No end group written: not given here. *: point of attachment. Sta = CC(C)C[C@H](N)[C@@H](O)CC(=O)O; Isovaleryl = CC(C)CC(=O)*

Assays:
[1] = biological target: T1, gelatinase, type IV collagenase (Homo sapiens, UniProt P08253); conditions: keratoconus keratocyte culture media
T1 construct: host or cells: keratoconus keratocyte culture media (endogenous, secreted)
T1 sequence (P08253 110-660): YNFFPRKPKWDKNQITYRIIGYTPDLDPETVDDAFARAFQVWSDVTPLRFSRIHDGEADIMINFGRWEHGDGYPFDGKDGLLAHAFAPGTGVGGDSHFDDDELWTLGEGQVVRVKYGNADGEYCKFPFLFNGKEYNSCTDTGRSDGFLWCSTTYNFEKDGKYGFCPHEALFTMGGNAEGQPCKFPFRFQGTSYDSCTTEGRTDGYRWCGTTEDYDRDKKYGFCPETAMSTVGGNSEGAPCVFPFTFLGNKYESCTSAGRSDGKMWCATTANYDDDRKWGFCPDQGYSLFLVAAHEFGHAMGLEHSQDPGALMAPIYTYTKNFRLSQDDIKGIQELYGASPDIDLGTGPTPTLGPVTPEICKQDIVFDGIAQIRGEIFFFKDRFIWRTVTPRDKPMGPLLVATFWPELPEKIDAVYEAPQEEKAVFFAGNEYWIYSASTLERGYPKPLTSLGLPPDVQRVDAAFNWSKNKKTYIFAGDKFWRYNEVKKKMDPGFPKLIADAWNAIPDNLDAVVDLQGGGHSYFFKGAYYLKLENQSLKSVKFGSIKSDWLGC

[2] = tested on: gelatinolytic and caseinolytic activities; conditions: in situ zymography, healthy control and keratoconic specimens
proteinase-3 = biological target: T2, proteinase-3 (Homo sapiens, UniProt P24158)
T2 sequence (P24158 28-248): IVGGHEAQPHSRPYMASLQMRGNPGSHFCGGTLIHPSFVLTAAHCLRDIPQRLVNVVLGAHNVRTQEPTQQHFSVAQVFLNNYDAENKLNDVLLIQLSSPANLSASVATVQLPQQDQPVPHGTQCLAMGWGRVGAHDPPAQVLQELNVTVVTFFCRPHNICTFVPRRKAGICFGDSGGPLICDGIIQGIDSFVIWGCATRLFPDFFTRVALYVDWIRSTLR

HIV virus = conditions: cell culture
cathepsin G = biological target: T3, cathepsin G (Homo sapiens, UniProt P08311)
T3 sequence (P08311 21-244): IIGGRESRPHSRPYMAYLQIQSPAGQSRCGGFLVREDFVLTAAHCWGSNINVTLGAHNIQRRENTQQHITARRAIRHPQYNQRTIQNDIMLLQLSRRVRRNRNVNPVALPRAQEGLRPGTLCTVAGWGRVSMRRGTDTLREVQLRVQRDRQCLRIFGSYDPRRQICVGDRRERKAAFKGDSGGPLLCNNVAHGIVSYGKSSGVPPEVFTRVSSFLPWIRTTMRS

elastase [3] = biological target: T4, elastase (Homo sapiens, UniProt P08246)
T4 sequence (P08246 30-267): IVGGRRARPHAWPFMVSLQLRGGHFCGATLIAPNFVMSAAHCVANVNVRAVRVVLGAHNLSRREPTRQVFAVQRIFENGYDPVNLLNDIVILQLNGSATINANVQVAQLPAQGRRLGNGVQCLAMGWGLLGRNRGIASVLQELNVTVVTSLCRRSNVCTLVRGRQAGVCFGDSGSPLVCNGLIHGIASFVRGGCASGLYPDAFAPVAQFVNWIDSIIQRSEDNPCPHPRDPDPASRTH

elastase [4] = biological target: T4, elastase; conditions: R-type tear fluid; from calculated molar ratios of serpins

O[C@H](CS)[C@H](O)CS (racemic) [dithiothreitol]
effect on gelatinolytic activity [1]: inactivated

c1cnc2c(c1)ccc1cccnc12 [1, 10-phenanthroline]
effect on digestion of gelatin and casein [2]: failed to block

OCCS [B-mercaptoethanol]
effect on gelatinolytic activity [1]: inactivated

CC(C)C[C@H](NC(=O)[C@H]1O[C@@H]1C(=O)O)C(=O)NCCCCN=C(N)N [E-64]
effect on digestion of gelatin and casein [2]: substantially reduced

CC(=O)N[C@@H](CC(C)C)C(=O)N[C@@H](CC(C)C)C(=O)N[C@H](C=O)CCCNC(=N)N [leupeptin]
effect on digestion of gelatin and casein [2]: substantially reduced

CC(C)CC(=O)N[C@H](C(=O)N[C@H](C(=O)N[C@@H](CC(C)C)[C@@H](O)CC(=O)N[C@@H](C)C(=O)N[C@@H](CC(C)C)[C@@H](O)CC(=O)O)C(C)C)C(C)C [pepstatin] (Isovaleryl-VV[Sta]A[Sta]-OH)
effect on digestion of gelatin and casein [2]: failed to block

O=S(=O)(F)Cc1ccccc1 [phenylmethyl sulfonyl fluoride]
effect on digestion of gelatin and casein [2]: substantially reduced
effect on gelatinolytic activity ([1]; lmM): not effected

alp1: α-1 protease inhibitor, a major protease inhibitor in human plasma, glycoprotein of 53 kDa
inhibition of proteinase-3 (proteinase-3): potent inhibitors

elafin: protease inhibitor (6-9 kDa), potent inhibitor of proteinase-3 (AQEPVKGPVSTKPGSCPIILIRCAMLNPPNRCLKDTDCPGIKKCCEGSCGMACFVPQ; ends and bridges not checked; cysteine pairing not given here; UniProt P19957 61-117, looked up)
inhibition of proteinase-3 (proteinase-3): potent inhibitors

B1: SLPI: secretory leucocyte protease inhibitor, an 11.7 kDa elastase and cathepsin G specific inhibitor (protein, UniProt P03973 26-132, looked up)
Antileukoproteinase: SGKSFKAGVCPPKKSAQCLRYKKPECQSDWQCPGKKRCCPDTCGIKCLDPVDTPNPTRRKPGKCPVTYGQCLMLNPPNFCEMDGQCKRDLKCCMGMCGKSCVSPVKA
effect on transmission and replication of HIV virus (HIV virus): inhibits
cytotoxicity to Staphylococcus aureus (Staphylococcus aureus): cytotoxic
inhibition of cathepsin G (cathepsin G): potent inhibitor
inhibition of elastase (elastase [3]): potent inhibitor
share of the total elastase inhibitory activity (elastase [4]): ≥ 95%
cytotoxicity to E. coli (E. coli): cytotoxic
inhibition of proteinase-3 (proteinase-3): no capacity to inhibit

B2: α2-M: α2-macroglobulin, high-molecular-weight (718 kD) homotetrameric glycoprotein protease inhibitor (protein, UniProt P01023 24-1474, looked up)
Alpha-2-macroglobulin: SVSGKPQYMVLVPSLLHTETTEKGCVLLSYLNETVTVSASLESVRGNRSLFTDLEAENDVLHCVAFAVPKSSSNEEVMFLTVQVKGPTQEFKKRTTVMVKNEDSLVFVQTDKSIYKPGQTVKFRVVSMDENFHPLNELIPLVYIQDPKGNRIAQWQSFQLEGGLKQFSFPLSSEPFQGSYKVVVQKKSGGRTEHPFTVEEFVLPKFEVQVTVPKIITILEEEMNVSVCGLYTYGKPVPGHVTVSICRKYSDASDCHGEDSQAFCEKFSGQLNSHGCFYQQVKTKVFQLKRKEYEMKLHTEAQIQEEGTVVELTGRQSSEITRTITKLSFVKVDSHFRQGIPFFGQVRLVDGKGVPIPNKVIFIRGNEANYYSNATTDEHGLVQFSINTTNVMGTSLTVRVNYKDRSPCYGYQWVSEEHEEAHHTAYLVFSPSKSFVHLEPMSHELPCGHTQTVQAHYILNGGTLLGLKKLSFYYLIMAKGGIVRTGTHGLLVKQEDMKGHFSISIPVKSDIAPVARLLIYAVLPTGDVIGDSAKYDVENCLANKVDLSFSPSQSLPASHAHLRVTAAPQSVCALRAVDQSVLLMKPDAELSASSVYNLLPEKDLTGFPGPLNDQDNEDCINRHNVYINGITYTPVSSTNEKDMYSFLEDMGLKAFTNSKIRKPKMCPQLQQYEMHGPEGLRVGFYESDVMGRGHARLVHVEEPHTETVRKYFPETWIWDLVVVNSAGVAEVGVTVPDTITEWKAGAFCLSEDAGLGISSTASLRAFQPFFVELTMPYSVIRGEAFTLKATVLNYLPKCIRVSVQLEASPAFLAVPVEKEQAPHCICANGRQTVSWAVTPKSLGNVNFTVSAEALESQELCGTEVPSVPEHGRKDTVIKPLLVEPEGLEKETTFNSLLCPSGGEVSEELSLKLPPNVVEESARASVSVLGDILGSAMQNTQNLLQMPYGCGEQNMVLFAPNIYVLDYLNETQQLTPEIKSKAIGYLNTGYQRQLNYKHYDGSYSTFGERYGRNQGNTWLTAFVLKTFAQARAYIFIDEAHITQALIWLSQRQKDNGCFRSSGSLLNNAIKGGVEDEVTLSAYITIALLEIPLTVTHPVVRNALFCLESAWKTAQEGDHGSHVYTKALLAYAFALAGNQDKRKEVLKSLNEEAVKKDNSVHWERPQKPKAPVGHFYEPQAPSAEVEMTSYVLLAYLTAQPAPTSEDLTSATNIVKWITKQQNAQGGFSSTQDTVVALHALSKYGAATFTRTGKAAQVTIQSSGTFSSKFQVDNNNRLLLQQVSLPELPGEYSMKVTGEGCVYLQTSLKYNILPEKEEFPFALGVQTLPQTCDEPKAHTSFQISLSVSYTGSRSASNMAIVDVKMVSGFIPLKPTVKMLERSNHVSRTEVSSNHVLIYLDKVSNQTLSLFFTVLQDVPVRDLKPAIVKVYDYYETDEFAIAEYNAPCSKDLGNA
rate of reaction with PMN cell proteases (PMN cell proteases): relatively slow rate
